Reference: patent US20140220033A1, “Administration of an Anti-Activin-A Compound to a Subject” (Santa Maria Biotherapeutics, Inc., priority 2013, published 2014)

B1: recombinant activin-A: Recombinant activin-A produced using mammalian expression system (Amgen Inc); stimulus in cell cultures (protein)
chain: GLECDGKVNICCKKQFFVSFKDIGWNDWIIAPSGYHANYCEGECPSHIAGTSGSSLSFHSTVINHYRMRGHSPFANLKSCCVPTKLRPMSMLYYDDGQNIIKKDIQNMIVEECGCS

Tests used:
[1] = test system: TOV-21G ovarian cancer xenografts; test: TOV-21G ovarian cancer xenograft growth in nude mice; format: in vivo, mouse
Protocol: 5×10^6 TOV-21G ovarian cancer cells were implanted subcutaneously into individual female athymic nu/nu mice (Harlan). Treatment was initiated at day 12 after tumor implantation, when the average tumor volume reached approximately 150 mm^3. The mice received PBS, sActRIIB (30 mg/kg, SC, 1×/week) or activin-A antibody (30 mg/kg, SC, 2×/week). In a separate chemotherapy combination experiment, the mice were treated with PBS, sActRIIB (10 mg/kg, SC, 1×/week), 5-FU (50 mg/kg, IP, 3 cycles, 4 daily injections per cycle) or sActRIIB and 5-FU combination at the same doses above.
For all xenograft experiments, the tumor sizes were measured longitudinally by using an electronic caliper Immediately prior to the 1st dose, the tumor-bearing mice were randomized to ensure even distribution in tumor sizes across different groups. Tumor volumes (mm^3) were calculated as tumor length (mm)×tumor width (mm)×tumor height (mm) Tumor weights were determined by necropsy.
In another experiment, athymic nude mice received TOV-21G xenografts in the abdominal flank. After 14 days, subcutaneous hu-sActRIIB-Fc was administered weekly alone or in combination with 5-FU.

VEGF transcripts = test: VEGF mRNA in cell cultures (real-time RT-PCR); format: cell-based, human, bovine; conditions: TOV-21G, BAEC, MRC-5, CCD-Lu, U937 cultures treated with recombinant activin-A, without or with sActRIIB; FIG. 16A
VEGF = VEGF release into culture medium (ELISA); format: cell-based, human; conditions: TOV21G, MRC-5, CCD-Lu and TPH-1 cells treated with activin-A, without or with sActRIIB; FIG. 17A
Protocol: (§1) The serum VEGF levels in inh-KO mice were measured by using immunoassay kit (R&D Systems), and the levels of human VEGF and Ang-1 in cell line culture medium were quantified using ELISA kits purchased from Invitrogen (VEGF) and R&D Systems (Ang-1), by following the manufacturers' recommended protocols.

activin-A (βA) mRNA = test: Endogenous activin-A (βA) mRNA in cell cultures (real-time RT-PCR); format: cell-based, human, bovine; conditions: TOV21G, BAEC, MRC-5, CCD-Lu, U937 and THP-1 cultures treated with recombinant activin-A, without or with sActRIIB; FIG. 18
Ang-1 mRNA = Ang-1 mRNA in cell cultures (real-time RT-PCR); format: cell-based, human, bovine; conditions: BAEC, MRC-5 and CCD-Lu cultures treated with recombinant activin-A, without or with sActRIIB; FIG. 16B
Ang-1 = Ang-1 release into culture medium (ELISA); format: cell-based, human; conditions: MRC-5 and CCD-Lu cells treated with activin-A, without or with sActRIIB; FIG. 17B
Protocol: as §1

Molecule	tumor growth reduction ([1]; 52 days after tumor cell injection, versus vehicle-treated tumor-bearing group, p<0.0001, weekly SC hu-sActRIIB-Fc from day 14, alone or with 5-FU) [%]	rate of tumor growth of TOV-21G xenografts ([1]; chemotherapy combination experiment, sActRIIB 10 mg/kg SC 1x/week, 5-FU 50 mg/kg IP 3 cycles, alone or together, FIG. 13)	levels of VEGF transcripts (VEGF transcripts)	release of VEGF into the culture medium (VEGF)	endogenous βA mRNA expression (activin-A (βA) mRNA)	levels of Ang-1 mRNA (Ang-1 mRNA)	release of Ang-1 into the culture medium (Ang-1)
O=c1[nH]cc(F)c(=O)[nH]1 [5-FU, 5-Fluorouracil, reference compound]	47	decreased the rate of tumor growth significantly	–	–	–	–	–
B1	–	–	marked increases	increased the release	markedly upregulated	marked increases	increased the release
